Experimental data as given in patent publication US6306580A, “Preparation of human papillomavirus E1 having helicase activity and method therefor” (priority 1999, dated 2001).
Where two headings read alike, the source gives them in different places.

Key:
[1] = biological target: HPV-11 E2 protein (human papillomavirus type 11) (UniProt P04015); assay: E2-dependent E1 DNA binding assay: E1/E2/ori complex with radiolabeled origin probe, captured with K72 antiserum on protein A-SPA beads, scintillation counting
HPV-11 E1 helicase = biological target: T1, HPV-11 E1 helicase (Human papillomavirus 11, UniProt P04014); assay: E1 helicase SPA high-throughput assay, inhibition (IC50 curves); type: biochemical, human papillomavirus type 11
T1 construct: made in house; host or cells: SF21 insect cells, recombinant baculovirus (Bac-to-Bac, pFASTBAC1)
From the text: In this assay, the duplex DNA substrate consists of M13 single-stranded DNA (about 8000 bases) to which is annealed a 19 base oligodeoxynucleotide (see FIG. 6). This partial duplex is extended to 24 bases with the incorporation of [^33 P]-labeled dATP by a reaction with the Klenow fragment of DNA polymerase I. Helicase activity results in the separation of this radiolabeled oligo from the M13 DNA. In the absence of a functional helicase, the double-stranded DNA substrate is stable for several hours at the assay temperature.
To detect activity, a second 24-base deoxyoligonucleotide, complementary to the substrate oligo, is added to the reaction mixture in a second step. […]
In the third step, streptavidin-coated SPA beads (Amersham Life Science, code TRKQ7030) are added to the mixture. […] Thus radiolabeled oligo annealed to the biotinylated oligo will be detected, whereas unreacted substrate still hybridized to M13 is not in close proximity to the beads and will not be detected.
In the presence of an inhibitor, less substrate is unwound, so a lower signal is detected. […] The M13 DNA competes with the labeled M13 substrate and inhibits the signal detected. […]
Assay buffer, used for all dilutions, consisted of 20 mM MES, pH 7.0, 10% glycerol, 1.0 mM DTT, and 0.05 mM EDTA. […] Sufficient E1 is used to give approximately 20% unwinding (as determined in Example 9). […]

[2] = system: partial duplex DNA substrate; conditions: Yang, PNAS (1993), assayed at 32°; cited from earlier work
[3] = system: partial duplex DNA substrate; assay: Helicase specific activity (unwinding of partial duplex DNA), this work; type: biochemical; conditions: 37°, enzyme concentration greater than substrate
Procedure: The substrate for the analytical helicase assay consisted of a […] oligonucleotide (GTAAAACGACCAGTGCCAAGC) (SEQ ID NO. 11) end-labeled using [^33 P]ATP and polynucleotide kinase, annealed to M13mp18. Combined helicase/ATPase reactions contained 800 or 1600 ng of E1, 2 mM MgCl2, 1 mM ATP, and 1 μM helicase substrate (concentration in nucleotides) in a total volume of 80 μL of helicase assay buffer (20 mM MES, pH 7.0, 1 mM DTT, 0.05 mM EDTA, 10% glycerol). Reactions were incubated for 2 h at 37° and then placed on ice. […]
Helicase activity was quantitated as follows:
A separate reaction mixture, containing no enzyme was heated to 95° for 10 min., and the resulting free substrate oligonucleotide (completely denatured) was detected as described for reaction mixtures. […] Quantitation of unwinding is calculated relative to the boiled sample with background subtracted.
In all cases the enzyme concentration was greater than the substrate concentration and the substrate was partial duplex DNA. […] The SV-40 TAg was also assessed in the literature and V of 50 and 80 % unwinding/μm protein/min were obtained from these groups respectively (Goetz, JBC (1988); Stahl, EMBO (1986)). […]

## HPV-11 His-E1 protein (wild type) (enzyme)
[1]
  signal over background (fold): 20 to 30 fold

## CC[n+]1c(-c2ccccc2)c2cc(N)ccc2c2ccc(N)cc21 [ethidium bromide]
HPV-11 E1 helicase
  IC50: ~4 µM

## BPV E1: bovine papillomavirus E1 helicase, literature value (Yang, PNAS 1993)
[2]
  Helicase Activity V (% unwinding/μM protein/min): 2.9 % unwinding/μM protein/min

B1: HPV-6a E1: His-tagged E1 helicase of human papillomavirus type 6a purified according to the invention (SEQ ID NO.27) (protein)
chain: MADDSGTENEGSGCTGWFMVEAIVQHPTGTQISDDEDEEVEDSGYDMVDFIDDSNITHNSLEAQALFNRQEADTHYATVQDLKRKYLGSPYVSPINTIAEAVESEISPRLDAIKLTRQPKKVKRRLFQTRELTDSGYGYSEVEAGTGTQVEKHGVPENGGDGQEKDTGRDIEGEEHTEAEAPTNSVREHAGTAGILELLKCKDLRAALLGKFKECFGLSFIDLIRPFKSDKTTCLDWVVARFGIHHSISEAFQKLIEPLSLYAHIQWLTNAWGMVLLVLLRFKVNKSRSTVARTLATLLNIPENQMLIEPPKIQSGVAALYWFRTGISNASTVIGEAPEWITRQTVIEHGLADSQFKLTEMVQWAYDNDICEESEIAFEYAQRGDFDSNARAFLNSNMQAKYVKDCATMCRHYKHAEMRKMSIKQWIKHRGSKIEGTGNWKPIVQFLRHQNIEFIPFLTKFKLWLHGTPKKNCIAIVGPPDTGKSYFCMSLISFLGGTVISHVNSSSHFWLQPLVDAKVALLDDATQPCWIYMDTYMRNLLDGNPMSIDRKHKALTLIKCPPLLVTSNIDITKEDKYKYLHTRVTTFTFPNPFPFDRNGNAVYELSNTNWKCFFERLSSSLDIQDSEDEEDGSNSQAFRCVPGTVVRTL
modifications: His tag
[3]
  Helicase Activity V (% unwinding/μM protein/min): 2.3 % unwinding/μM protein/min

B2: HPV-11 E1: His-tagged E1 helicase of human papillomavirus type 11, low-salt nuclear extraction, Ni affinity purified (SEQ ID NO.26) (protein)
chain: MADDSGTENEGSGCTGWFMVEAIVEHTTGTQISEDEEEEVEDSGYDMVDFIDDRHITQNSVEAQALFNRQEADAHYATVQDLKRKYLGSPYVSPISNVANAVESEISPRLDAIKLTTQPKKVKRRLFETRELTDSGYGYSEVEAATQVEKHGDPENGGDGEERDTGRDIEGEGVEHREAEAVDDSTREHADTSGILELLKCKDIRSTLHGKFKDCFGLSFVDLIRPFKSDRTTCADWVVAGFGIHHSIADAFQKLIEPLSLYAHIQWLTNAWGMVLLVLIRFKVNKSRCTVARTLGTLLNIPENHMLIEPPKIQSGVAALYWFRTGISNASTVIGEAPEWITRQTVIEHSLADSQFKLTEMVQWAYDNDICEESEIAFEYAQRGDFDSNARAFLNSNMQAKYVKDCAIMCRHYKHAEMKKMSIKQWIKYRGTKVDSVGNWKPIVQFLRHQNIEFIPFLSKLKLWLHGTPKKNCIAIVGPPDTGKSCFCMSLIKFLGGTVISYVNSCSHFWLQPLTDAKVALLDDATQPCWTYMDTYMRNLLDGNPMSIDRKHRALTLIKCPPLLVTSNIDISKEEKYKYLHSRVTTFTFPNPFPFDRNGNAVYELSDANWKCFFERLSSSLDIEDSEDEEDGSNSQAFRCVPGSVVRTL
modifications: His tag
[3]
  Helicase Activity V (% unwinding/μM protein/min): 2.5 % unwinding/μM protein/min
